Numbering of substitutions follows the chain as printed. In names and notes the source's numbering stands.
Assays:
mouse CCR7 [1] = molecular target: T1, mouse CCR7 (mouse, UniProt P47774 25-378); assay: FACS titration, NIH3T3 cells expressing mouse CCR7
T1 construct: also called NIH3T3.mouse CCR7
T1 sequence: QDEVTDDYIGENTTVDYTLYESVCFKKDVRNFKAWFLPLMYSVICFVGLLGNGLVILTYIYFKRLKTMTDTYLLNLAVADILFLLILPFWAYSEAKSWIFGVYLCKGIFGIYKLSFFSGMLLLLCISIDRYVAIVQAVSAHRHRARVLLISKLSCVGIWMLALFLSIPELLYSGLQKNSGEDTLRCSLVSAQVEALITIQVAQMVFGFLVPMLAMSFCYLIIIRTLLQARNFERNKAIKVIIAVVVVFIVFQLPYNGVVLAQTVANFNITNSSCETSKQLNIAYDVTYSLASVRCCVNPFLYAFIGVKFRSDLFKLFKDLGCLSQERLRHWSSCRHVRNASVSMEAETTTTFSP

cynomolgus monkey CCR7 [2] = molecular target: T2, cynomolgus monkey CCR7 (cynomolgus monkey, UniProt P32248 25-378 (human entry)); assay: FACS titration, NIH3T3 cells expressing cyno CCR7
T2 construct: also called Cyno CCR7; NIH3T3.cyno CCR7
T2 sequence: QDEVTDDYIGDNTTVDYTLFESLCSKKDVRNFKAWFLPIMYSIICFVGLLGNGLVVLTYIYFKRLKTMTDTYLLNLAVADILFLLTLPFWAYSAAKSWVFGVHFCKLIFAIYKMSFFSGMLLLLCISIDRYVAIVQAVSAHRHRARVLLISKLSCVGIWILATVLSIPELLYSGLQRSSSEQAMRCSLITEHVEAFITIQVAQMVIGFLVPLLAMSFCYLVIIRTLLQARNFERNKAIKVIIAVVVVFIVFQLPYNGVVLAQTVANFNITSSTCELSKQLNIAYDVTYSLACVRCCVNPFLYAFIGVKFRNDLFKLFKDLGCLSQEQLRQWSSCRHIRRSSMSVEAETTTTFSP

human CCR7 [3] = molecular target: T3, human CCR7 (human, UniProt P32248 25-378); assay: FACS titration, NIH3T3 cells expressing human CCR7
T3 construct: The assay field tells which; also called hCCR7; NIH3T3.hCCR7
T3 sequence: T2 sequence with G174D

human CCR7 [4] = molecular target: T3, human CCR7; assay: FACS titration, human CD4+ T cells from PBMC
human CCR7 [5] = molecular target: T3, human CCR7; assay: FACS titration, Jeko-1 cancer cells (CCR7+)
rat CCR7 [6] = molecular target: T4, rat CCR7 (rat, UniProt P47774 25-378 (mouse entry)); assay: FACS titration, Wistar rat CD4+ T cells
T4 construct: also called NIH3T3.rat CCR7
T4 chain: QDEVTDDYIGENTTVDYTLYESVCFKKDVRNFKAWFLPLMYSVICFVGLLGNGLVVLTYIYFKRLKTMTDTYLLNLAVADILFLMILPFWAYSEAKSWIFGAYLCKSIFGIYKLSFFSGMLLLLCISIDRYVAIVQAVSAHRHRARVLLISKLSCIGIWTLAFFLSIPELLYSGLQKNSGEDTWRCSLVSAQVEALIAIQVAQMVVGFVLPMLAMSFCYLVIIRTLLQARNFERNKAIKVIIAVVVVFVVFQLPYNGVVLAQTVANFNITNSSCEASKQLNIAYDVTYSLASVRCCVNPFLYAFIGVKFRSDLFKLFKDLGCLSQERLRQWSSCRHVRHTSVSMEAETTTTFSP

human CCR7 [7] = molecular target: T3, human CCR7; assay: cell-based or functional assay
cynomolgus monkey CCR7 [8] = molecular target: T2, cynomolgus monkey CCR7; assay: FACS titration, cynomolgus CD4+ T cells
rat CCR7 [9] = molecular target: T4, rat CCR7; assay: FACS titration, NIH3T3 cells expressing rat CCR7
mouse CCR7 [10] = molecular target: T1, mouse CCR7; assay: FACS titration, CD-1 mouse CD4+ T cells
human CCR7 [11] = molecular target: T3, human CCR7; assay: FACS titration, human CD4+ T cells from PBMC; remark: listed apart in the source
human CCR7 [12] = molecular target: T3, human CCR7; assay: ELISA on CCR7-expressing VLPs, pH 7.4 buffer
human CCR7 [13] = molecular target: T3, human CCR7; assay: ELISA on CCR7-expressing VLPs, pH 5.8 buffer
CXCR4 = molecular target: T5, CXCR4 (UniProt P61073 1-352, limits assumed); assay: FACS on HEK293-CXCR4 cells
T5 construct: whole, on cells; also called HEK293-CXCR4

human CCR7 [14] = molecular target: T3, human CCR7; assay: ELISA on CCR7-expressing VLPs, Kd at pH 5.8 over Kd at pH 7.4
CCR6 = molecular target: T6, CCR6 (UniProt P51684 1-374, limits assumed); assay: FACS on PF382 cells (CCR7-/CCR9+/CCR6+)
T6 construct: whole, on cells; also called PF382 cells (CCR7-/CCR9+/CCR6+)
T6 sequence (looked up): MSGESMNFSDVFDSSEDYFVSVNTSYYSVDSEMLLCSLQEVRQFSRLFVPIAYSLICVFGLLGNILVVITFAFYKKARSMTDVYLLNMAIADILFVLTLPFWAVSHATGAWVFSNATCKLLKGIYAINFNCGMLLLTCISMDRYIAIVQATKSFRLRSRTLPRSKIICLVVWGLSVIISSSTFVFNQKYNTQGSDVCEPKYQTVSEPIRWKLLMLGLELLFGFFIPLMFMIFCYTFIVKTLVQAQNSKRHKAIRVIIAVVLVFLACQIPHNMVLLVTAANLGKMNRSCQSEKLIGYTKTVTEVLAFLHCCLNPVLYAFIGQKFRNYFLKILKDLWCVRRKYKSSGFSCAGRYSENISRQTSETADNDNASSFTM

CCR9 = molecular target: T7, CCR9 (UniProt P51686 1-369, limits assumed); assay: FACS on PF382 cells (CCR7-/CCR9+/CCR6+)
T7 construct: whole, on cells; also called PF382 cells (CCR7-/CCR9+/CCR6+)
T7 sequence (looked up): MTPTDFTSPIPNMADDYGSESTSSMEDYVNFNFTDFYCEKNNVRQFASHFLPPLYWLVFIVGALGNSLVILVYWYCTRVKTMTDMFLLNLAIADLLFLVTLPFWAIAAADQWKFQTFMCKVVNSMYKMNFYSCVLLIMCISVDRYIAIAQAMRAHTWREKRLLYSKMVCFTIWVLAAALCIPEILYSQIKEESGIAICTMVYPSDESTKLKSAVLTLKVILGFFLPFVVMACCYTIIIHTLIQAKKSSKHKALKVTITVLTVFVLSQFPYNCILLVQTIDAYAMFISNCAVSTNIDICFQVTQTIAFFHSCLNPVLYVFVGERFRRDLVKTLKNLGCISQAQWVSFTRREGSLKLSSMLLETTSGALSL

CCR8 = molecular target: T8, CCR8 (UniProt P51685 1-355, limits assumed); assay: FACS on CHO-CCR8 cells
T8 construct: whole, on cells; also called CHO-CCR8

cynomolgus monkey CCR7 [15] = molecular target: T2, cynomolgus monkey CCR7; assay: FACS titration, NIH3T3 cells expressing cyno CCR7; remark: listed apart in the source
human CCR7 [16] = molecular target: T3, human CCR7; assay: FACS titration, DEL cells (CCR7 receptor levels >=100,000)
cynomolgus monkey CCR7 [17] = molecular target: T2, cynomolgus monkey CCR7; assay: FACS titration, cynomolgus CD4+ T cells; remark: listed apart in the source
human CCR7 [18] = molecular target: T3, human CCR7; assay: FACS titration, NIH3T3 cells expressing human CCR7; remark: listed apart in the source

T8 sequence (P51685 whole entry): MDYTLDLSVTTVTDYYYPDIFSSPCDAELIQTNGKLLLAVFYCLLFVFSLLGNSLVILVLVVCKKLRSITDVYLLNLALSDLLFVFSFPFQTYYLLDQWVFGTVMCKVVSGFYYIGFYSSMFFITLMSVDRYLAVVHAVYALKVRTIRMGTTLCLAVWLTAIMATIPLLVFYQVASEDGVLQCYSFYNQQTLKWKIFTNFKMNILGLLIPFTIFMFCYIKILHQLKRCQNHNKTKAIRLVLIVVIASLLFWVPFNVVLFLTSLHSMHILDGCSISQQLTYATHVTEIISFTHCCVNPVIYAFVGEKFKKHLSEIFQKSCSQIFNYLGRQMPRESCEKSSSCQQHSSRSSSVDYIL
T5 sequence (P61073 whole entry): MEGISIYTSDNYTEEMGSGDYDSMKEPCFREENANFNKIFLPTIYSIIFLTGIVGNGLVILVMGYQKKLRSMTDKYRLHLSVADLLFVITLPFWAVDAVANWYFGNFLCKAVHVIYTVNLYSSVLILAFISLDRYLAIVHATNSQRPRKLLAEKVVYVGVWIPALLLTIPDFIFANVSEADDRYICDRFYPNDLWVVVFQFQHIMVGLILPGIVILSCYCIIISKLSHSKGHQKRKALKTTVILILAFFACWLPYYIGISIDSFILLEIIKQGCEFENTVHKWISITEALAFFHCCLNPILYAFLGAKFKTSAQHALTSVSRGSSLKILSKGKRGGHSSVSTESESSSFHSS

B1: 121G12 non-humanized CysMab (antibody, human IgG1, kappa, V domains shown)
VH: EVQLVESGGGLVKPGGSLKLSCAASGFTFSTYAMSWVRQTPEKRLEWVATISDGGSYSYYPDNVKGRFTISRDNAKNNLYLQMSHLKSEDTAMYYCARRGSRYEEYYVMDYWGQGTSVTVSS
VL: DIVLTQSPATLSVTPGDSVSLSCRASQSISNNLHWYQQKSHESPKLLIKYASQSISGIPSRFSGSGSGTDFTLSINSVETEDFGMYFCQQSNSWLTFGAGTKLGLKR
notes: Chimeric: murine variable regions on human IgG1 kappa with CysMab cysteines (E152C, S375C) and wild type Fc; also called Parental 121G12 hIgG1 CysMab; Non-humanized CysMab antibody 121G12
For B1, the EC50 (mouse CCR7 [1]) was 2.5 nM, the EC50 (cynomolgus monkey CCR7 [2]) was 1.3 nM and the EC50 (human CCR7 [3]) was 1.3 nM. For the same binder, the EC50 (human CCR7 [4]) was 22 to 30 nM, the EC50 (human CCR7 [5]) was 1.5 nM and the EC50 (rat CCR7 [6]) was 18 to 31 nM. For the same binder, the “ADCC activity; IC50 (nM); reporter assay, JVM2 targets and Jurkat-V158 effectors” value (human CCR7 [7]) was 0.077 nM, the EC50 (cynomolgus monkey CCR7 [8]) was 5.8 to 12 nM and the EC50 (rat CCR7 [9]) was 2.4 nM. It also gave an EC50 (mouse CCR7 [10]) of 48 to 51 nM.

B2: 684E12 humanized CysMab (Fc Wild Type) (antibody, V domains shown)
VH: EVQLVESGGGLVKPGGSLRLSCAASGFTFSNFAMSWVRQAPGKGLEWVSTISTGGTYTYYPDSVKGRFTISRDNAKNSLYLQMNSLRAEDTAVYYCARRGYSGVDKWGQGTTVTVSS
VL: DVVMTQSPLSLPVTLGQPASISCKSGQSLLDSTGKTYLNWFLQRPGQSPRRLIYLVSKLDSGVPDRFSGSGSGTDFTLKISRVEAEDVGVYYCWQGTHFPQTFGGGTKLEIK
notes: Human IgG1 kappa with CysMab cysteines; also called Humanized CysMab antibody 684E12
B2 showed an EC50 (human CCR7 [11]) of 6.7 nM, a Kd (human CCR7 [12]) of 0.0374 nM and a Kd (human CCR7 [13]) of 0.504 nM. For the same binder, the binding result (CXCR4) was “no binding (tested: 5 ug/ml)”, the “fold change (pH 5.8/7.4)” value (human CCR7 [14]) was 13 fold and the binding result (CCR6) was “no binding (tested: 5 ug/ml)”. B2: no binding (tested: 5 ug/ml) (CCR9); no binding (tested: 5 ug/ml) (CCR8).

B3: 121G12 humanized CysMab (Fc Wild Type) (antibody, V domains shown)
VH: EVQLVESGGGLVKPGGSLRLSCAASGFTFSTYAMSWVRQAPGKGLEWVATISDAGSYSYYPDNVKGRFTISRDNAKNSLYLQMNSLRAEDTAVYYCARRGSRYEEYYVMDYWGQGTTVTVSS
VL: EIVLTQSPATLSVSPGERVTLSCRASQSISNNLHWYQQKPGQAPRLLIKYASQSISGIPARFSGSGSGTDFTLTISSVEPEDFGVYFCQQSSSWLTFGQGTKLEIK
notes: Human IgG1 kappa with CysMab cysteines (E152C, S375C); also called Humanized CysMab antibody 121G12; 121G12.CysMab.DAR4 unconjugated (assigned)
For B3, the EC50 (human CCR7 [11]) was 30 to 34 nM, the Kd (human CCR7 [12]) was 0.141 nM and the EC50 (cynomolgus monkey CCR7 [15]) was 0.9 nM. For the same binder, the EC50 (human CCR7 [16]) was 5.24 nM, the Kd (human CCR7 [13]) was 0.521 nM and the binding result (CXCR4) was “no binding (tested: 5 ug/ml)”. The EC50 (cynomolgus monkey CCR7 [17]) was 12 nM, the EC50 (human CCR7 [18]) was 1 nM and the binding result (CCR6) was “no binding (tested: 5 ug/ml)”. B3: no binding (tested: 5 ug/ml) (CCR9); no binding (tested: 5 ug/ml) (CCR8).

Reference: patent publication US20230181756A1 (Novartis, published 2023)
